In this data set the test system is Escherichia coli TOP10. Briefly: shrunken log2 fold change of peptide-encoding DNA abundance (4.5 h post-induction vs induction); higher = less antimicrobial activity (less host growth inhibition). As to conditions: time post-induction: 4.5 h; library: site-saturation at positions 5, 18, 19, 20.
Regarding RRIRDRPPRLPRPRPRPSPAPRP, the “shrunken log2 fold change” value came out at 0.0515. The result for RRIRVRPPRLPRPRPRPHARPRP reads 0.0538. For RRIRGRPPRLPRPRPRPRGCPRP, the “shrunken log2 fold change” value is 1.37. The result for RRIRARPPRLPRPRPRPMMQPRP reads 0.185. Next, RRIRTRPPRLPRPRPRPFTTPRP: -0.0286; RRIRKRPPRLPRPRPRPLLMPRP: -0.109; RRIRHRPPRLPRPRPRPLMPPRP: -0.107. Turning to RRIRLRPPRLPRPRPRPHKAPRP, the “shrunken log2 fold change” value was -0.0451.

Take RRIRERPPRLPRPRPRPFVYPRP: the “shrunken log2 fold change” value is -0.123. Next, RRIRVRPPRLPRPRPRPNPTPRP: -0.325. Next, RRIRHRPPRLPRPRPRPYEPPRP: -0.451; RRIRLRPPRLPRPRPRPKYNPRP: -0.703; RRIRQRPPRLPRPRPRPVNFPRP: -0.346. RRIRYRPPRLPRPRPRPFRNPRP: the “shrunken log2 fold change” value is -0.462. The result for RRIRPRPPRLPRPRPRPAWRPRP reads 0.645.

For the sequence RRIRSRPPRLPRPRPRPYVQPRP, the “shrunken log2 fold change” value was -0.024. On to RRIRPRPPRLPRPRPRPGTLPRP, for which the “shrunken log2 fold change” value stood at 0.0426.

Take RRIRVRPPRLPRPRPRPNDGPRP: the “shrunken log2 fold change” value was -0.133. Next, RRIRFRPPRLPRPRPRPEFYPRP: 0.0551; RRIRWRPPRLPRPRPRPFTGPRP: 0.0256; RRIRCRPPRLPRPRPRPYERPRP: -0.133. As to RRIRTRPPRLPRPRPRPPGLPRP, the “shrunken log2 fold change” value was 1.11. Consider RRIRYRPPRLPRPRPRPFCPPRP, for which the “shrunken log2 fold change” value was -0.878. The result for RRIRHRPPRLPRPRPRPIGIPRP reads 0.0295; that for RRIRHRPPRLPRPRPRPRKEPRP, -0.0122. Next, RRIRDRPPRLPRPRPRPFYGPRP: -0.108; RRIRHRPPRLPRPRPRPHCIPRP: -0.199. Next, RRIRLRPPRLPRPRPRPDIGPRP: -0.189. Consider RRIRLRPPRLPRPRPRPRATPRP, for which the “shrunken log2 fold change” value was 0.228. The result for RRIRARPPRLPRPRPRPAHQPRP reads 0.568; that for RRIRTRPPRLPRPRPRPPLNPRP, -0.183; that for RRIRTRPPRLPRPRPRPPLYPRP, -0.12. As for RRIRARPPRLPRPRPRPSSKPRP, the “shrunken log2 fold change” value was -0.134. With RRIRCRPPRLPRPRPRPDDMPRP, the “shrunken log2 fold change” value was -0.477. Next, RRIRMRPPRLPRPRPRPLFYPRP: -0.305.

In the case of RRIRRRPPRLPRPRPRPFWAPRP, the “shrunken log2 fold change” value worked out at 0.0811. Next, RRIRQRPPRLPRPRPRPGIQPRP: -0.056; RRIRKRPPRLPRPRPRPNSFPRP: -0.234. Next, RRIRDRPPRLPRPRPRPYAQPRP: -0.156; RRIRQRPPRLPRPRPRPDWMPRP: 0.0723; RRIRARPPRLPRPRPRPYPMPRP: 0.019.

As for RRIRMRPPRLPRPRPRPSREPRP, the “shrunken log2 fold change” value came out at 0.545. Next, RRIRQRPPRLPRPRPRPYSEPRP: 0.0294; RRIRERPPRLPRPRPRPGPPPRP: 0.317; RRIRCRPPRLPRPRPRPRWLPRP: 0.313. The result for RRIRYRPPRLPRPRPRPEARPRP reads 0.105; that for RRIRVRPPRLPRPRPRPCQSPRP, 0.0215; that for RRIRSRPPRLPRPRPRPEIDPRP, 0.166. The result for RRIRPRPPRLPRPRPRPEFVPRP reads -0.0384; that for RRIRKRPPRLPRPRPRPVIEPRP, 0.15.

The record behind these values is the supplement of paper PMC9112550, “Optimization of the antimicrobial peptide Bac7 by deep mutational scanning” (BMC Biology, 2022).
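Note: peptides expressed intracellularly from a pBAD plasmid library in pooled LB shake-flask culture, induced with 0.3% L-arabinose, DNA abundance read by NGS, three biological replicates, DESeq2 with apeglm shrinkage.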
